Reference: patent EP3502685A1

B1: Anti-[TRISP][B7] (antibody, V domains shown)
VH: AVTLDESGGGLQTPRGGLSLVCKASGYTFSSHNMAWVRQAPGKGLEFVAGISNTGSFTLYGAAVKGRATISRDNGQSTVRLQLNNLRAEDTGTYYCAKHAGVGLYSIDAWGHGTEVIVSS
VL: ALTQPSSVSANLGGTVKITCSGGTSDYGWYQQKAPGSAPVTLIYDNTNRPSDIPSRFSGSLSGSTNTLTITGVQAEDEAVYFCGSADRTYAGVFGAGTTLTVL
B2: Anti-[TRISP][C9] (antibody, V domains shown)
VH: AVTLDESGGGLQTPGGALSLVCKASGFSISSYSMQWVRQAPGKGLEWVAGIYYDGNTWYAPAVKGRATISRDNGQSTVRLRLNNLRAEDTATYFCAKYAGGYSIDAWGHGTEVIVSS
VL: ALTQPSSVSANPGETVKITCSGSSGSYGWYQQKSPGSGPVTVIYYNDKRPSDIPSRFSGSASGSTATLTITGVQAEDEAVYFCGGYDSSTYVGIFGAGTTLTVL

Biological target: T. spiralis E/S antigen

Binder | detection limit [ng/mL]
B1 | 6
B2 | 6
